Measured values as given in article PMC4605427.

Tests used:
[1] = target: phosphorylated cytosolic domain of the TCR γ-chain (pCD3γCD) (UniProt P09693); test: BLI
[2] = target: GST-pCD3γCD fusion protein (UniProt P09693); test: ELISA

KD2 (weak set), fold against its KD1 [1] | koff1, ratio against AADN and tSH2 [1] | koff2 (weak set), fold against its koff1 [1] | kon1, fold against AADN and tSH2 [1] | kon2 (weak set), fold against its kon1 [1] | Kd [1] | fold concentration needed, against YY, to compete similarly [2] | Substance
10 fold | 0.5 fold | 20 fold | 2 fold | 2 fold | – | – | kinase-dead D461N mutant of ZAP-70 (YYDN) (from UniProt P43403 1-619) (enzyme)
– | – | – | – | – | 10 nM | – | recombinant tSH2 module of ZAP-70 (aa 1–256) (from UniProt P43403 1-256) (domain or fragment)
10 fold | 0.5 fold | 20 fold | 2 fold | 2 fold | – | 3 fold | ZAP-70 phenylalanine mutant Y315/Y319F, kinase-dead (FFDN) (from UniProt P43403 1-619) (enzyme)
